Test results: patent US20230365671A1 (ONCOONE RESEARCH AND DEVELOPMENT, published 2023)
Numbering of substitutions follows the chain as printed.

B1: anti-oxMIF antibody C0108 (antibody, human IgG1, kappa)
heavy: EVQLQESGGGLVQPGGSLRLSCAASGFTFSIYSMNWVRQAPGKGLEWVSSIGSSGGTTYYADSVKGRFTISRDNSKNTLYLQMNSLRAEDTAVYYCAGSQYLYGMDVWGQGTTVTVSSASTKGPSVFPLAPSSKSTSGGTAALGCLVKDYFPEPVTVSWNSGALTSGVHTFPAVLQSSGLYSLSSVVTVPSSSLGTQTYICNVNHKPSNTKVDKKVEPKSCDKTHTCPPCPAPELLGGPDVFLFPPKPKDTLMISRTPEVTCVVVDVSHEDPEVQFNWYVDGVEVHNAKTKPREEQFNSTFRVVSVLTVVHQDWLNGKEYKCKVSNKALPAPEEKTISKTKGQPREPQVYTLPPSREEMTKNQVSLTCLVKGFYPSDIAVEWESNGQPENNYKTTPPMLDSDGSFFLYSKLTVDKSRWQQGNVFSCSVMHEALHNHYTQKSLSLSPG
light: DIQMTQSPSSLSASVGDRVTITCRSSQRIMTYLNWYQQKPGKAPKLLIYVGSHSQSGVPSRFRGSGSETDFTLTISGLQPEDSATYYCQQSFFTPLTFGGGTKVEIKRTVAAPSVFIFPPSDEQLKSGTASVVCLLNNFYPREAKVQWKVDNALQSGNSQESVTEQDSKDSTYSLSSTLTLSKADYEKHKVYACEVTHQGLSSPVTKSFNRGEC
notes: ADCC/ADCP enhancing mutations in the Fc portion
B2: anti-oxMIF antibody C0109 (antibody, human IgG1, kappa)
heavy: B1 heavy
light: B1 light with M30L, P80S
notes: as for B1

Assays:
[1] = biological target: T1, oxMIF: recombinant human MIF immobilized into ELISA plates (transforming MIF to oxMIF) (human, UniProt P14174 2-115); experiment: ELISA, antibody titrated on plate-immobilized recombinant human MIF (oxMIF), goat anti-human IgG(Fc)-HRP; EC50 of 4-parameter fit given as KD, two experiments
T1 construct: Same polypeptide as redMIF; differs in conformation (oxMIF isoform); also called immobilized MIF; immobilized oxMIF
T1 sequence (P14174 2-115 limits assumed): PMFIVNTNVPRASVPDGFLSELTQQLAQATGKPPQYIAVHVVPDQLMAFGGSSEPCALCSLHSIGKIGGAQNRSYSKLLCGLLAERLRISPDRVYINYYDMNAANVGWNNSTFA
Description: Recombinant human MIF diluted in PBS at 1 μg/ml was immobilized into ELISA plates overnight at 4° C. (transforming MIF to oxMIF according to Thiele et al., 2015). After blocking, serial dilutions of anti-oxMIF antibodies were added to the plates. Finally, bound antibodies were detected with Goat anti-human IgG(Fc)-HRP conjugate and tetramethylbenzidine (TMB) as substrate. The chromogenic reaction was stopped with 3M H₂SO₄ and OD was measured at 450 nm.

[2] = biological target: T2, Human oxMIF (human recombinant MIF treated with 0.2% Proclin300, oxMIF surrogate) (human, UniProt P14174 2-115, treated with 0.2% Proclin300 (active component 5-chloro-2-methyl-4-isothiazolin-3-one) for 3 h to transform MIF into an oxMIF surrogate); experiment: SPR (Biacore 3000), antibody amine-coupled to CM5 chip, Proclin300-treated MIF 50-150 nM as analyte, 1:1 Langmuir with mass transfer; mean of flow cells 2-4, SD +/-2.30 nM
T2 construct: SPR analyte; also called Proclin300 treated MIF; soluble human oxMIF
T2 sequence (P14174 2-115 limits assumed): as above
Description: (§1) FC1 was used as reference cell and was only reacted with buffers. Mouse or human recombinant MIF were diluted in HBS-EP buffer (GE Healthcare) to concentrations of 50, 75, 100, or 150 nM in the presence of 0.2% Proclin300 (active component 5-chloro-2-methyl-4-isothiazolin-3-one; Sigma) to transform MIF into an oxMIF surrogate (Thiele M et al., 2015) for 3 h at room temperature. Proclin300 treated MIF was applied to immobilized anti-oxMIF antibodies at a flow rate of 30 μl/min for 3 min using a Biacore™ 3000 Instrument (GE Healthcare). Dissociation time was 300 seconds, and the chip was regenerated using 10 mM HCl for 3 minutes. The kinetics of the concentration series were analyzed by local simultaneous association/dissociation fitting of each binding curve after subtraction of background from the reference cell (FC1) using the iterative Langmuir 1:1 interaction model with mass transfer compensation provided by the BiaEvaluation 4.1 software (GE Healthcare). Data are represented as mean+/−SD (standard deviation) of the calculated KD values of Flow Cells 2-4.

[3] = biological target: T2, Human oxMIF (human recombinant MIF …); experiment: SPR (Biacore 3000), antibody amine-coupled to CM5 chip, Proclin300-treated MIF 50-150 nM as analyte, 1:1 Langmuir with mass transfer; mean of flow cells 2-4, SD +/-0.83 nM
Description: as §1

| Binder | Kd [1] [nM] | Kd [2] [nM] | Kd [3] [nM] |
| --- | --- | --- | --- |
| B1 | 0.3 | 6.06 |  |
| B2 | 0.3 |  | 3.69 |
